# Results published in article PMC6294257, “Osteocalcin triggers Fas/FasL-mediated necroptosis in adipocytes via activation of p300” (Cell Death & Disease, 2018).
# Molecular target: the molecule itself
# Experiment: non-reducing SDS-PAGE and immunoblot; 3T3-L1 adipocytes incubated with GluOC for 24 h; cell lysates prepared in the absence of 2-mercaptoethanol; immunoblot with antibodies to MLKL
protein,measurement,value
"mixed-lineage kinase domain-like protein (MLKL) (natural protein, mouse (endogenous in 3T3-L1), UniProt Q9D2Y4 1-472, looked up, mixed-lineage kinase domain-like protein (MLKL), endogenous in 3T3-L1 adipocytes treated with GluOC; High-dose GluOC induces phosphorylation of MLKL, printed as Thr357/Ser358; these numbers may be those of human MLKL although the cells are mouse; source: endogenous, 3T3-L1 adipocyte lysate) MDKLGQIIKLGQLIYEQCEKMKYCRKQCQRLGNRVHGLLQPLQRLQAQGKKNLPDDITAALGRFDEVLKEANQQIEKFSKKSHIWKFVSVGNDKILFHEVNEKLRDVWEELLLLLQVYHWNTVSDVSQPASWQQEDRQDAEEDGNENMKVILMQLQISVEEINKTLKQCSLKPTQEIPQDLQIKEIPKEHLGPPWTKLKTSKMSTIYRGEYHRSPVTIKVFNNPQAESVGIVRFTFNDEIKTMKKFDSPNILRIFGICIDQTVKPPEFSIVMEYCELGTLRELLDREKDLTMSVRSLLVLRAARGLYRLHHSETLHRNISSSSFLVAGGYQVKLAGFELSKTQNSISRTAKSTKAERSSSTIYVSPERLKNPFCLYDIKAEIYSFGIVLWEIATGKIPFEGCDSKKIRELVAEDKKQEPVGQDCPELLREIINECRAHEPSQRPSVDGRSLSGRERILERLSAVEESTDKKV",stoichiometry N,3
